Test results from IntAct's records for PubMed 21828050.

B1: Kelch-like protein 7 (Homo sapiens), Q8IXQ5 (parent)
chain: MAASGVEKSSKKKTEKKLAAREEAKLLAGFMGVMNNMRKQKTLCDVILMVQERKIPAHRVVLAAASHFFNLMFTTNMLESKSFEVELKDAEPDIIEQLVEFAYTARISVNSNNVQSLLDAANQYQIEPVKKMCVDFLKEQVDASNCLGISVLAECLDCPELKATADDFIHQHFTEVYKTDEFLQLDVKRVTHLLNQDTLTVRAEDQVYDAAVRWLKYDEPNRQPFMVDILAKVRFPLISKNFLSKTVQAEPLIQDNPECLKMVISGMRYHLLSPEDREELVDGTRPRRKKHDYRIALFGGSQPQSCRYFNPKDYSWTDIRCPFEKRRDAACVFWDNVVYILGGSQLFPIKRMDCYNVVKDSWYSKLGPPTPRDSLAACAAEGKIYTSGGSEVGNSALYLFECYDTRTESWHTKPSMLTQRCSHGMVEANGLIYVCGGSLGNNVSGRVLNSCEVYDPATETWTELCPMIEARKNHGLVFVKDKIFAVGGQNGLGGLDNVEYYDIKLNEWKMVSPMPWKGVTVKCAAVGSIVYVLAGFQGVGRLGHILEYNTETDKWVANSKVRAFPVTSCLICVVDTCGANEETLET

Variants of: B1
Settings: with cul3_human CUL3, Q13618

| effect of a mutation on the interaction | Variant |
| --- | --- |
| disrupting interaction | MAASGVEKSSKKKTEKKLAAREEAKLLAGFMGVMNNMRKQKTLCDVILMVQERKIPAHRVVLAAASHFFNLMFTTNMLESKSFEVELKDAEPDIIEQLVEFAYTARISVNSNNVQSLLDAANQYQIEPVKKMCVDFLKEQVDASNCLGISVLTECLDCPELKATADDFIHQHFTEVYKTDEFLQLDVKRVTHLLNQDTLTVRAEDQVYDAAVRWLKYDEPNRQPFMVDILAKVRFPLISKNFLSKTVQAEPLIQDNPECLKMVISGMRYHLLSPEDREELVDGTRPRRKKHDYRIALFGGSQPQSCRYFNPKDYSWTDIRCPFEKRRDAACVFWDNVVYILGGSQLFPIKRMDCYNVVKDSWYSKLGPPTPRDSLAACAAEGKIYTSGGSEVGNSALYLFECYDTRTESWHTKPSMLTQRCSHGMVEANGLIYVCGGSLGNNVSGRVLNSCEVYDPATETWTELCPMIEARKNHGLVFVKDKIFAVGGQNGLGGLDNVEYYDIKLNEWKMVSPMPWKGVTVKCAAVGSIVYVLAGFQGVGRLGHILEYNTETDKWVANSKVRAFPVTSCLICVVDTCGANEETLET [A153T] |
| disrupting interaction | MAASGVEKSSKKKTEKKLAAREEAKLLAGFMGVMNNMRKQKTLCDVILMVQERKIPAHRVVLAAASHFFNLMFTTNMLESKSFEVELKDAEPDIIEQLVEFAYTARISVNSNNVQSLLDAANQYQIEPVKKMCVDFLKEQVDASNCLGISVLVECLDCPELKATADDFIHQHFTEVYKTDEFLQLDVKRVTHLLNQDTLTVRAEDQVYDAAVRWLKYDEPNRQPFMVDILAKVRFPLISKNFLSKTVQAEPLIQDNPECLKMVISGMRYHLLSPEDREELVDGTRPRRKKHDYRIALFGGSQPQSCRYFNPKDYSWTDIRCPFEKRRDAACVFWDNVVYILGGSQLFPIKRMDCYNVVKDSWYSKLGPPTPRDSLAACAAEGKIYTSGGSEVGNSALYLFECYDTRTESWHTKPSMLTQRCSHGMVEANGLIYVCGGSLGNNVSGRVLNSCEVYDPATETWTELCPMIEARKNHGLVFVKDKIFAVGGQNGLGGLDNVEYYDIKLNEWKMVSPMPWKGVTVKCAAVGSIVYVLAGFQGVGRLGHILEYNTETDKWVANSKVRAFPVTSCLICVVDTCGANEETLET [A153V] |

Variants of: B1
Settings: with cul3_human CUL3, Q13618
Remark: another data set of the same source

| effect of a mutation on the interaction | Variant |
| --- | --- |
| decreasing interaction | MAASGVEKSSKKKTEKKLAAREEAKLLAGFMGVMNNMRKQKTLCDVILMVQERKIPAHRVVLAAASHFFNLMFTTNMLESKSFEVELKDAEPDIIEQLVEFAYTARISVNSNNVQSLLDAANQYQIEPVKKMCVDFLKEQVDASNCLGISVLVECLDCPELKATADDFIHQHFTEVYKTDEFLQLDVKRVTHLLNQDTLTVRAEDQVYDAAVRWLKYDEPNRQPFMVDILAKVRFPLISKNFLSKTVQAEPLIQDNPECLKMVISGMRYHLLSPEDREELVDGTRPRRKKHDYRIALFGGSQPQSCRYFNPKDYSWTDIRCPFEKRRDAACVFWDNVVYILGGSQLFPIKRMDCYNVVKDSWYSKLGPPTPRDSLAACAAEGKIYTSGGSEVGNSALYLFECYDTRTESWHTKPSMLTQRCSHGMVEANGLIYVCGGSLGNNVSGRVLNSCEVYDPATETWTELCPMIEARKNHGLVFVKDKIFAVGGQNGLGGLDNVEYYDIKLNEWKMVSPMPWKGVTVKCAAVGSIVYVLAGFQGVGRLGHILEYNTETDKWVANSKVRAFPVTSCLICVVDTCGANEETLET [A153V] |
